# Measurements: patent US20240279278A1, “NMU RECEPTOR 2 AGONISTS” (Boehringer Ingelheim International GmbH, priority 2023, published 2024)
# Starred links: 1 amine or outer side, 2 acyl side, 3 side chain; linkers in the order of their positions; H or OH if unused. Non-standard residues stand in square brackets, D forms with d. *: point of attachment. Pipz(1-CH2CO,4-CH2CH2NH) = O=C(CN1CCN(CCN[*:1])CC1)[*:2]; C18 diacid = O=C(O)CCCCCCCCCCCCCCCCC(=O)*; γGlu = O=C(O)[C@H](CCC(=O)[*:2])N[*:1]; NMeL = CN[C@@H](CC(C)C)C(=O)O; hLys = NCCCCC[C@H](N)C(=O)O; Nle = CCCC[C@H](N)C(=O)O; Sar = CNCC(=O)O
# T1: human neuromedin U receptor 1 (human, UniProt Q9HB89 24-426)
# T1 sequence (looked up): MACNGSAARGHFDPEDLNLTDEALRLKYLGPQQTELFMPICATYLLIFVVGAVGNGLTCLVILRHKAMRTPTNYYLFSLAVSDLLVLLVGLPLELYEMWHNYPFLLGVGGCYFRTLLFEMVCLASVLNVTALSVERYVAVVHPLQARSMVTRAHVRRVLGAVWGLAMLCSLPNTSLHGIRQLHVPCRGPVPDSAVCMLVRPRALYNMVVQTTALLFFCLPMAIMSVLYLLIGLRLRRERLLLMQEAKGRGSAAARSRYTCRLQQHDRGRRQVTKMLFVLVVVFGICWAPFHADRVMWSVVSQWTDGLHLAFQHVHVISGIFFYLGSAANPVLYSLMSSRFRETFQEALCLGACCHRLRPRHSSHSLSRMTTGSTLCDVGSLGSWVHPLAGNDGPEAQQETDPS
# B1: C18DA-gGlu3-Sar9-AEPipAc-Tyr-Phe-NMeLeu-Nle-Arg-Pro-Arg-Gly-NH2 (peptide)
# peptide: EEEXXXXXXXXXXYFLXRPRG
# HELM: PEPTIDE1{[O=C(O)CCCCCCCCCCCCCCCCC(=O)[*:2]].[gGlu].[gGlu].[gGlu].[Sar].[Sar].[Sar].[Sar].[Sar].[Sar].[Sar].[Sar].[Sar].[O=C(CN1CCN(CCN[*:1])CC1)[*:2]].Y.F.[meL].[Nle].R.P.R.G.[am]}$$$$V2.0
# SMILES: CCCC[C@H](NC(=O)[C@H](CC(C)C)N(C)C(=O)[C@H](Cc1ccccc1)NC(=O)[C@H](Cc1ccc(O)cc1)NC(=O)CN1CCN(CCNC(=O)CN(C)C(=O)CN(C)C(=O)CN(C)C(=O)CN(C)C(=O)CN(C)C(=O)CN(C)C(=O)CN(C)C(=O)CN(C)C(=O)CN(C)C(=O)CC[C@H](NC(=O)CC[C@H](NC(=O)CC[C@H](NC(=O)CCCCCCCCCCCCCCCCC(=O)O)C(=O)O)C(=O)O)C(=O)O)CC1)C(=O)N[C@@H](CCCNC(=N)N)C(=O)N1CCC[C@H]1C(=O)N[C@@H](CCCNC(=N)N)C(=O)NCC(N)=O
# B2: C18DA-gGlu3-Sar15-PipAc-Tyr-Phe-NMeLeu-Nle-Arg-Pro-Arg-Gly-NH2 (peptide)
# peptide: EEEXXXXXXXXXXXXXXXXYFLXRPRG
# HELM: PEPTIDE1{[O=C(O)CCCCCCCCCCCCCCCCC(=O)[*:2]].[gGlu].[gGlu].[gGlu].[Sar].[Sar].[Sar].[Sar].[Sar].[Sar].[Sar].[Sar].[Sar].[Sar].[Sar].[Sar].[Sar].[Sar].[Sar].[O=C(CN1CCN([*:1])CC1)[*:2]].Y.F.[meL].[Nle].R.P.R.G.[am]}$$$$V2.0
# SMILES: CCCC[C@H](NC(=O)[C@H](CC(C)C)N(C)C(=O)[C@H](Cc1ccccc1)NC(=O)[C@H](Cc1ccc(O)cc1)NC(=O)CN1CCN(C(=O)CN(C)C(=O)CN(C)C(=O)CN(C)C(=O)CN(C)C(=O)CN(C)C(=O)CN(C)C(=O)CN(C)C(=O)CN(C)C(=O)CN(C)C(=O)CN(C)C(=O)CN(C)C(=O)CN(C)C(=O)CN(C)C(=O)CN(C)C(=O)CN(C)C(=O)CC[C@H](NC(=O)CC[C@H](NC(=O)CC[C@H](NC(=O)CCCCCCCCCCCCCCCCC(=O)O)C(=O)O)C(=O)O)C(=O)O)CC1)C(=O)N[C@@H](CCCNC(=N)N)C(=O)N1CCC[C@H]1C(=O)N[C@@H](CCCNC(=N)N)C(=O)NCC(N)=O
# B3: C18DA-gGlu3-Sar15-PipAc-Tyr-Phe-NMeLeu-Nle-Dbu-Pro-Arg-Gly-NH2 (peptide)
# peptide: EEEXXXXXXXXXXXXXXXXYFLXXPRG
# HELM: PEPTIDE1{[O=C(O)CCCCCCCCCCCCCCCCC(=O)[*:2]].[gGlu].[gGlu].[gGlu].[Sar].[Sar].[Sar].[Sar].[Sar].[Sar].[Sar].[Sar].[Sar].[Sar].[Sar].[Sar].[Sar].[Sar].[Sar].[O=C(CN1CCN([*:1])CC1)[*:2]].Y.F.[meL].[Nle].[Dab].P.R.G.[am]}$$$$V2.0
# SMILES: CCCC[C@H](NC(=O)[C@H](CC(C)C)N(C)C(=O)[C@H](Cc1ccccc1)NC(=O)[C@H](Cc1ccc(O)cc1)NC(=O)CN1CCN(C(=O)CN(C)C(=O)CN(C)C(=O)CN(C)C(=O)CN(C)C(=O)CN(C)C(=O)CN(C)C(=O)CN(C)C(=O)CN(C)C(=O)CN(C)C(=O)CN(C)C(=O)CN(C)C(=O)CN(C)C(=O)CN(C)C(=O)CN(C)C(=O)CN(C)C(=O)CC[C@H](NC(=O)CC[C@H](NC(=O)CC[C@H](NC(=O)CCCCCCCCCCCCCCCCC(=O)O)C(=O)O)C(=O)O)C(=O)O)CC1)C(=O)N[C@@H](CCN)C(=O)N1CCC[C@H]1C(=O)N[C@@H](CCCNC(=N)N)C(=O)NCC(N)=O
# B4: C18DA-gGlu3-Sar9-AEPipAc-Tyr-Phe-NMeLeu-Nle-Arg-NMeAla-Arg-Gly-NH2 (peptide)
# peptide: EEEXXXXXXXXXXYFLXRARG
# HELM: PEPTIDE1{[O=C(O)CCCCCCCCCCCCCCCCC(=O)[*:2]].[gGlu].[gGlu].[gGlu].[Sar].[Sar].[Sar].[Sar].[Sar].[Sar].[Sar].[Sar].[Sar].[O=C(CN1CCN(CCN[*:1])CC1)[*:2]].Y.F.[meL].[Nle].R.[meA].R.G.[am]}$$$$V2.0
# SMILES: CCCC[C@H](NC(=O)[C@H](CC(C)C)N(C)C(=O)[C@H](Cc1ccccc1)NC(=O)[C@H](Cc1ccc(O)cc1)NC(=O)CN1CCN(CCNC(=O)CN(C)C(=O)CN(C)C(=O)CN(C)C(=O)CN(C)C(=O)CN(C)C(=O)CN(C)C(=O)CN(C)C(=O)CN(C)C(=O)CN(C)C(=O)CC[C@H](NC(=O)CC[C@H](NC(=O)CC[C@H](NC(=O)CCCCCCCCCCCCCCCCC(=O)O)C(=O)O)C(=O)O)C(=O)O)CC1)C(=O)N[C@@H](CCCNC(=N)N)C(=O)N(C)[C@@H](C)C(=O)N[C@@H](CCCNC(=N)N)C(=O)NCC(N)=O
# B5: C18DA-gGlu3-Sar6-AEPipAc-Tyr-Phe-NMeLeu-Nle-Arg-Pro-Arg-Gly-NH2 (peptide)
# peptide: EEEXXXXXXXYFLXRPRG
# HELM: PEPTIDE1{[O=C(O)CCCCCCCCCCCCCCCCC(=O)[*:2]].[gGlu].[gGlu].[gGlu].[Sar].[Sar].[Sar].[Sar].[Sar].[Sar].[O=C(CN1CCN(CCN[*:1])CC1)[*:2]].Y.F.[meL].[Nle].R.P.R.G.[am]}$$$$V2.0
# SMILES: CCCC[C@H](NC(=O)[C@H](CC(C)C)N(C)C(=O)[C@H](Cc1ccccc1)NC(=O)[C@H](Cc1ccc(O)cc1)NC(=O)CN1CCN(CCNC(=O)CN(C)C(=O)CN(C)C(=O)CN(C)C(=O)CN(C)C(=O)CN(C)C(=O)CN(C)C(=O)CC[C@H](NC(=O)CC[C@H](NC(=O)CC[C@H](NC(=O)CCCCCCCCCCCCCCCCC(=O)O)C(=O)O)C(=O)O)C(=O)O)CC1)C(=O)N[C@@H](CCCNC(=N)N)C(=O)N1CCC[C@H]1C(=O)N[C@@H](CCCNC(=N)N)C(=O)NCC(N)=O
# B6: C18DA-gGlu3-Sar9-AEPipAc-Tyr-Phe-NMeLeu-Nle-Orn-NMeAla-Arg-Gly-NH2 (peptide)
# peptide: EEEXXXXXXXXXXYFLXXARG
# HELM: PEPTIDE1{[O=C(O)CCCCCCCCCCCCCCCCC(=O)[*:2]].[gGlu].[gGlu].[gGlu].[Sar].[Sar].[Sar].[Sar].[Sar].[Sar].[Sar].[Sar].[Sar].[O=C(CN1CCN(CCN[*:1])CC1)[*:2]].Y.F.[meL].[Nle].[Orn].[meA].R.G.[am]}$$$$V2.0
# SMILES: CCCC[C@H](NC(=O)[C@H](CC(C)C)N(C)C(=O)[C@H](Cc1ccccc1)NC(=O)[C@H](Cc1ccc(O)cc1)NC(=O)CN1CCN(CCNC(=O)CN(C)C(=O)CN(C)C(=O)CN(C)C(=O)CN(C)C(=O)CN(C)C(=O)CN(C)C(=O)CN(C)C(=O)CN(C)C(=O)CN(C)C(=O)CC[C@H](NC(=O)CC[C@H](NC(=O)CC[C@H](NC(=O)CCCCCCCCCCCCCCCCC(=O)O)C(=O)O)C(=O)O)C(=O)O)CC1)C(=O)N[C@@H](CCCN)C(=O)N(C)[C@@H](C)C(=O)N[C@@H](CCCNC(=N)N)C(=O)NCC(N)=O
# B7: C18DA-gGlu3-Sar9-AEPipAc-Tyr-Phe-NMeLeu-Nle-hLys-Pro-Arg-Gly-NH2 (peptide)
# peptide: {C18 diacid}-[γGlu][γGlu][γGlu][Sar][Sar][Sar][Sar][Sar][Sar][Sar][Sar][Sar][Pipz(1-CH2CO,4-CH2CH2NH)]YF[NMeL][Nle][hLys]PRG-NH2
# SMILES: CCCC[C@H](NC(=O)[C@H](CC(C)C)N(C)C(=O)[C@H](Cc1ccccc1)NC(=O)[C@H](Cc1ccc(O)cc1)NC(=O)CN1CCN(CCNC(=O)CN(C)C(=O)CN(C)C(=O)CN(C)C(=O)CN(C)C(=O)CN(C)C(=O)CN(C)C(=O)CN(C)C(=O)CN(C)C(=O)CN(C)C(=O)CC[C@H](NC(=O)CC[C@H](NC(=O)CC[C@H](NC(=O)CCCCCCCCCCCCCCCCC(=O)O)C(=O)O)C(=O)O)C(=O)O)CC1)C(=O)N[C@@H](CCCCCN)C(=O)N1CCC[C@H]1C(=O)N[C@@H](CCCNC(=N)N)C(=O)NCC(N)=O
# B8: C18DA-gGlu2-Sar6-AEPipAc-Tyr-Phe-NMeLeu-Nle-Arg-Pro-Arg-Gly-NH2 (peptide)
# peptide: EEXXXXXXXYFLXRPRG
# HELM: PEPTIDE1{[O=C(O)CCCCCCCCCCCCCCCCC(=O)[*:2]].[gGlu].[gGlu].[Sar].[Sar].[Sar].[Sar].[Sar].[Sar].[O=C(CN1CCN(CCN[*:1])CC1)[*:2]].Y.F.[meL].[Nle].R.P.R.G.[am]}$$$$V2.0
# SMILES: CCCC[C@H](NC(=O)[C@H](CC(C)C)N(C)C(=O)[C@H](Cc1ccccc1)NC(=O)[C@H](Cc1ccc(O)cc1)NC(=O)CN1CCN(CCNC(=O)CN(C)C(=O)CN(C)C(=O)CN(C)C(=O)CN(C)C(=O)CN(C)C(=O)CN(C)C(=O)CC[C@H](NC(=O)CC[C@H](NC(=O)CCCCCCCCCCCCCCCCC(=O)O)C(=O)O)C(=O)O)CC1)C(=O)N[C@@H](CCCNC(=N)N)C(=O)N1CCC[C@H]1C(=O)N[C@@H](CCCNC(=N)N)C(=O)NCC(N)=O
# B9: C18DA-gGlu2-Sar9-AEPipAc-Tyr-Phe-NMeLeu-Nle-Arg-Pro-Arg-Gly-NH2 (peptide)
# peptide: EEXXXXXXXXXXYFLXRPRG
# HELM: PEPTIDE1{[O=C(O)CCCCCCCCCCCCCCCCC(=O)[*:2]].[gGlu].[gGlu].[Sar].[Sar].[Sar].[Sar].[Sar].[Sar].[Sar].[Sar].[Sar].[O=C(CN1CCN(CCN[*:1])CC1)[*:2]].Y.F.[meL].[Nle].R.P.R.G.[am]}$$$$V2.0
# SMILES: CCCC[C@H](NC(=O)[C@H](CC(C)C)N(C)C(=O)[C@H](Cc1ccccc1)NC(=O)[C@H](Cc1ccc(O)cc1)NC(=O)CN1CCN(CCNC(=O)CN(C)C(=O)CN(C)C(=O)CN(C)C(=O)CN(C)C(=O)CN(C)C(=O)CN(C)C(=O)CN(C)C(=O)CN(C)C(=O)CN(C)C(=O)CC[C@H](NC(=O)CC[C@H](NC(=O)CCCCCCCCCCCCCCCCC(=O)O)C(=O)O)C(=O)O)CC1)C(=O)N[C@@H](CCCNC(=N)N)C(=O)N1CCC[C@H]1C(=O)N[C@@H](CCCNC(=N)N)C(=O)NCC(N)=O
# Target: T1, human neuromedin U receptor 1
# Assay: cell-based or functional assay
row,EC50 (hNMUR1) buffer [nM],Binder
1,150,B1
2,130,B2
3,1100,B3
4,540,B4
5,82,B5
6,> 1000,B6
7,1400,B7
8,130,B8
9,90,B9
